Target: FGFR2 over-expressed on CHO cells (CHO-FGFR2) and on 32D cells (32D-FGFR2) (UniProt P21803)
Test: competition of unlabeled protein with 125I-FGF4 (Gly79-Leu206) for CHO-FGFR2 cells, +heparin

FGF4 (Gly79-Leu206) N89A/K198A/K183A/K188A (from UniProt P08620 79-206) (ligand)
IC50 mutant/IC50 wild-type (ratio (IC50 mutant/IC50 wild-type)): > 1000
